According to article PMC4677358:

Legend:
[1] = biological target: RuvA (bound to Holliday junction DNA) (E. coli) (UniProt P0A809)
[2] = biological target: RuvA (bound to Holliday junction DNA) (E. coli) (UniProt P0A809); experiment: single-molecule fluorescence imaging in zero mode waveguides (counting of Cy5 photobleaching steps); 400 nM RuvA with 40 nM biotinylated Cy3-Holliday junction DNA held by streptavidin in the nanoholes, unbound washed out; 400 nM Cy5-RuvB added; 20 mM HEPES-KOH pH 8.0, 10 mM MgCl2; 25 ± 2 °C; holes with a single DNA; step counts fitted for the 42% labeling ratio; no nucleotide
[3] = biological target: RuvA (bound to Holliday junction DNA) (E. coli) (UniProt P0A809); experiment: single-molecule fluorescence imaging in zero mode waveguides (counting of Cy5 photobleaching steps); 400 nM RuvA with 40 nM biotinylated Cy3-Holliday junction DNA held by streptavidin in the nanoholes, unbound washed out; 400 nM Cy5-RuvB added; 20 mM HEPES-KOH pH 8.0, 10 mM MgCl2; 25 ± 2 °C; holes with a single DNA; step counts fitted for the 42% labeling ratio; 0.5 mM ADP and 0.5 mM ATPγS
[4] = biological target: RuvA (bound to Holliday junction DNA) (E. coli) (UniProt P0A809); experiment: single-molecule fluorescence imaging in zero mode waveguides (counting of Cy5 photobleaching steps); 400 nM RuvA with 40 nM biotinylated Cy3-Holliday junction DNA held by streptavidin in the nanoholes, unbound washed out; 400 nM Cy5-RuvB added; 20 mM HEPES-KOH pH 8.0, 10 mM MgCl2; 25 ± 2 °C; holes with a single DNA; step counts fitted for the 42% labeling ratio; 1 mM ADP
[5] = biological target: RuvA (bound to Holliday junction DNA) (E. coli) (UniProt P0A809); experiment: single-molecule fluorescence imaging in zero mode waveguides (counting of Cy5 photobleaching steps); 400 nM RuvA with 40 nM biotinylated Cy3-Holliday junction DNA held by streptavidin in the nanoholes, unbound washed out; 400 nM Cy5-RuvB added; 20 mM HEPES-KOH pH 8.0, 10 mM MgCl2; 25 ± 2 °C; holes with a single DNA; step counts fitted for the 42% labeling ratio; 1 mM ATPγS

UniProt P0A809, sequence (P0A809 whole entry): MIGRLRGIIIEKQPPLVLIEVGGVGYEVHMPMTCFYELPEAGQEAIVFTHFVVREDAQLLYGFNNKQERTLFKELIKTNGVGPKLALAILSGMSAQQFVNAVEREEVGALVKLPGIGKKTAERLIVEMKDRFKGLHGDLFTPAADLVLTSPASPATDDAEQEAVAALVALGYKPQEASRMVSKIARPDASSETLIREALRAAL
RuvB, sequence (P0A812 whole entry): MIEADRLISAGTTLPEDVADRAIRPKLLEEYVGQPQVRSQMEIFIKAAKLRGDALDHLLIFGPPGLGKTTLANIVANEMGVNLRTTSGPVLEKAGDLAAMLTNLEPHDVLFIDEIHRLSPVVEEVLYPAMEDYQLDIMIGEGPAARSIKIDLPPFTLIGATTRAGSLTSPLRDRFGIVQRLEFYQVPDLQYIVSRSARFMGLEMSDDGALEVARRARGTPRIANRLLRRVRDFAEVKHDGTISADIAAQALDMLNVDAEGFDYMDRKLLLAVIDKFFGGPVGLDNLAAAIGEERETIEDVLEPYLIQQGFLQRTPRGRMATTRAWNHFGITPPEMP

RuvB (from UniProt P0A812 1-336) (enzyme)
ratio of fluorescent spots of Cy3-Holliday junction DNA to nanoholes after addition of 400 nM RuvB with 1 mM ATP and 5 min at 25 °C (about 90% before the addition); loss of spots by branch migration [1]: 16%

Cy5-labeled RuvB-S39C (from UniProt P0A812 1-336) (enzyme)
% of Holliday junction DNA (with RuvA) that interacted with RuvB (fit, monomer model) [2]: 77% | % of RuvA-Holliday junction DNA complexes with 0 RuvB dimers bound (fit, dimer model, Cy5 at random) [2]: 35% | % of RuvA-Holliday junction DNA complexes with 0 RuvB dimers bound (fit, dimer model, one Cy5 per labelled dimer) [2]: 52% | % of RuvA-Holliday junction DNA complexes with 0 RuvBs bound (fit, monomer model) [2]: 23% | % of RuvA-Holliday junction DNA complexes with 1 RuvB dimers bound (fit, dimer model, Cy5 at random) [2]: 65% | % of RuvA-Holliday junction DNA complexes with 1 RuvB dimers bound (fit, dimer model, one Cy5 per labelled dimer) [2]: 38% | % of RuvA-Holliday junction DNA complexes with 1 RuvBs bound (fit, monomer model) [2]: 37% | % of RuvA-Holliday junction DNA complexes with 2 RuvB dimers bound (fit, dimer model, Cy5 at random) [2]: 0% | % of RuvA-Holliday junction DNA complexes with 2 RuvB dimers bound (fit, dimer model, one Cy5 per labelled dimer) [2]: 10% | % of RuvA-Holliday junction DNA complexes with 2 RuvBs bound (fit, monomer model) [2]: 40% | % of RuvA-Holliday junction DNA complexes with 3 RuvB dimers bound (fit, dimer model, Cy5 at random) [2]: 0% | % of RuvA-Holliday junction DNA complexes with 3 RuvB dimers bound (fit, dimer model, one Cy5 per labelled dimer) [2]: 0% | % of RuvA-Holliday junction DNA complexes with 3 RuvBs bound (fit, monomer model) [2]: 0% | % of RuvA-Holliday junction DNA complexes with 4 RuvB dimers bound (fit, dimer model, Cy5 at random) [2]: 0% | % of RuvA-Holliday junction DNA complexes with 4 RuvB dimers bound (fit, dimer model, one Cy5 per labelled dimer) [2]: 0% | % of RuvA-Holliday junction DNA complexes with 4 RuvBs bound (fit, monomer model) [2]: 0% | % of RuvA-Holliday junction DNA complexes with 5 RuvB dimers bound (fit, dimer model, Cy5 at random) [2]: 0% | % of RuvA-Holliday junction DNA complexes with 5 RuvB dimers bound (fit, dimer model, one Cy5 per labelled dimer) [2]: 0% | % of RuvA-Holliday junction DNA complexes with 5 RuvBs bound (fit, monomer model) [2]: 0% | % of RuvA-Holliday junction DNA complexes with 6 RuvB dimers bound (fit, dimer model, Cy5 at random) [2]: 0% | % of RuvA-Holliday junction DNA complexes with 6 RuvB dimers bound (fit, dimer model, one Cy5 per labelled dimer) [2]: 0% | % of RuvA-Holliday junction DNA complexes with 6 RuvBs bound (fit, monomer model) [2]: 0% | % of Holliday junction DNA (with RuvA) that interacted with RuvB (fit, dimer model of Table 2) [3]: 97% | % of Holliday junction DNA (with RuvA) that interacted with RuvB (fit, monomer model) [3]: 98% | % of RuvA-Holliday junction DNA complexes with 0 RuvB dimers bound (fit, dimer model, Cy5 at random) [3]: 3% | % of RuvA-Holliday junction DNA complexes with 0 RuvB dimers bound (fit, dimer model, one Cy5 per labelled dimer) [3]: 14% | % of RuvA-Holliday junction DNA complexes with 0 RuvBs bound (fit, monomer model) [3]: 2% | % of RuvA-Holliday junction DNA complexes with 1 RuvB dimers bound (fit, dimer model, Cy5 at random) [3]: 24% | % of RuvA-Holliday junction DNA complexes with 1 RuvB dimers bound (fit, dimer model, one Cy5 per labelled dimer) [3]: 29% | % of RuvA-Holliday junction DNA complexes with 1 RuvBs bound (fit, monomer model) [3]: 5% | % of RuvA-Holliday junction DNA complexes with 2 RuvB dimers bound (fit, dimer model, Cy5 at random) [3]: 70% | % of RuvA-Holliday junction DNA complexes with 2 RuvB dimers bound (fit, dimer model, one Cy5 per labelled dimer) [3]: 33% | % of RuvA-Holliday junction DNA complexes with 2 RuvBs bound (fit, monomer model) [3]: 8% | % of RuvA-Holliday junction DNA complexes with 3 RuvB dimers bound (fit, dimer model, Cy5 at random) [3]: 3% | % of RuvA-Holliday junction DNA complexes with 3 RuvB dimers bound (fit, dimer model, one Cy5 per labelled dimer) [3]: 19% | % of RuvA-Holliday junction DNA complexes with 3 RuvBs bound (fit, monomer model) [3]: 31% | % of RuvA-Holliday junction DNA complexes with 4 RuvB dimers bound (fit, dimer model, Cy5 at random) [3]: 0% | % of RuvA-Holliday junction DNA complexes with 4 RuvB dimers bound (fit, dimer model, one Cy5 per labelled dimer) [3]: 4% | % of RuvA-Holliday junction DNA complexes with 4 RuvBs bound (fit, monomer model) [3]: 37% | % of RuvA-Holliday junction DNA complexes with 5 RuvB dimers bound (fit, dimer model, Cy5 at random) [3]: 0% | % of RuvA-Holliday junction DNA complexes with 5 RuvB dimers bound (fit, dimer model, one Cy5 per labelled dimer) [3]: 1% | % of RuvA-Holliday junction DNA complexes with 5 RuvBs bound (fit, monomer model) [3]: 14% | % of RuvA-Holliday junction DNA complexes with 6 RuvB dimers bound (fit, dimer model, Cy5 at random) [3]: 0% | % of RuvA-Holliday junction DNA complexes with 6 RuvB dimers bound (fit, dimer model, one Cy5 per labelled dimer) [3]: 0% | % of RuvA-Holliday junction DNA complexes with 6 RuvBs bound (fit, monomer model) [3]: 3% | % of Holliday junction DNA (with RuvA) that interacted with RuvB (fit, monomer model) [4]: 90% | % of RuvA-Holliday junction DNA complexes with 0 RuvB dimers bound (fit, dimer model, Cy5 at random) [4]: 11% | % of RuvA-Holliday junction DNA complexes with 0 RuvB dimers bound (fit, dimer model, one Cy5 per labelled dimer) [4]: 26% | % of RuvA-Holliday junction DNA complexes with 0 RuvBs bound (fit, monomer model) [4]: 10% | % of RuvA-Holliday junction DNA complexes with 1 RuvB dimers bound (fit, dimer model, Cy5 at random) [4]: 48% | % of RuvA-Holliday junction DNA complexes with 1 RuvB dimers bound (fit, dimer model, one Cy5 per labelled dimer) [4]: 35% | % of RuvA-Holliday junction DNA complexes with 1 RuvBs bound (fit, monomer model) [4]: 10% | % of RuvA-Holliday junction DNA complexes with 2 RuvB dimers bound (fit, dimer model, Cy5 at random) [4]: 41% | % of RuvA-Holliday junction DNA complexes with 2 RuvB dimers bound (fit, dimer model, one Cy5 per labelled dimer) [4]: 26% | % of RuvA-Holliday junction DNA complexes with 2 RuvBs bound (fit, monomer model) [4]: 21% | % of RuvA-Holliday junction DNA complexes with 3 RuvB dimers bound (fit, dimer model, Cy5 at random) [4]: 0% | % of RuvA-Holliday junction DNA complexes with 3 RuvB dimers bound (fit, dimer model, one Cy5 per labelled dimer) [4]: 13% | % of RuvA-Holliday junction DNA complexes with 3 RuvBs bound (fit, monomer model) [4]: 30% | % of RuvA-Holliday junction DNA complexes with 4 RuvB dimers bound (fit, dimer model, Cy5 at random) [4]: 0% | % of RuvA-Holliday junction DNA complexes with 4 RuvB dimers bound (fit, dimer model, one Cy5 per labelled dimer) [4]: 0% | % of RuvA-Holliday junction DNA complexes with 4 RuvBs bound (fit, monomer model) [4]: 29% | % of RuvA-Holliday junction DNA complexes with 5 RuvB dimers bound (fit, dimer model, Cy5 at random) [4]: 0% | % of RuvA-Holliday junction DNA complexes with 5 RuvB dimers bound (fit, dimer model, one Cy5 per labelled dimer) [4]: 0% | % of RuvA-Holliday junction DNA complexes with 5 RuvBs bound (fit, monomer model) [4]: 0% | % of RuvA-Holliday junction DNA complexes with 6 RuvB dimers bound (fit, dimer model, Cy5 at random) [4]: 0% | % of RuvA-Holliday junction DNA complexes with 6 RuvB dimers bound (fit, dimer model, one Cy5 per labelled dimer) [4]: 0% | % of RuvA-Holliday junction DNA complexes with 6 RuvBs bound (fit, monomer model) [4]: 0% | % of Holliday junction DNA (with RuvA) that interacted with RuvB (fit, monomer model) [5]: 92% | % of RuvA-Holliday junction DNA complexes with 0 RuvB dimers bound (fit, dimer model, Cy5 at random) [5]: 11% | % of RuvA-Holliday junction DNA complexes with 0 RuvB dimers bound (fit, dimer model, one Cy5 per labelled dimer) [5]: 23% | % of RuvA-Holliday junction DNA complexes with 0 RuvBs bound (fit, monomer model) [5]: 8% | % of RuvA-Holliday junction DNA complexes with 1 RuvB dimers bound (fit, dimer model, Cy5 at random) [5]: 36% | % of RuvA-Holliday junction DNA complexes with 1 RuvB dimers bound (fit, dimer model, one Cy5 per labelled dimer) [5]: 32% | % of RuvA-Holliday junction DNA complexes with 1 RuvBs bound (fit, monomer model) [5]: 12% | % of RuvA-Holliday junction DNA complexes with 2 RuvB dimers bound (fit, dimer model, Cy5 at random) [5]: 53% | % of RuvA-Holliday junction DNA complexes with 2 RuvB dimers bound (fit, dimer model, one Cy5 per labelled dimer) [5]: 27% | % of RuvA-Holliday junction DNA complexes with 2 RuvBs bound (fit, monomer model) [5]: 18% | % of RuvA-Holliday junction DNA complexes with 3 RuvB dimers bound (fit, dimer model, Cy5 at random) [5]: 0% | % of RuvA-Holliday junction DNA complexes with 3 RuvB dimers bound (fit, dimer model, one Cy5 per labelled dimer) [5]: 14% | % of RuvA-Holliday junction DNA complexes with 3 RuvBs bound (fit, monomer model) [5]: 19% | % of RuvA-Holliday junction DNA complexes with 4 RuvB dimers bound (fit, dimer model, Cy5 at random) [5]: 0% | % of RuvA-Holliday junction DNA complexes with 4 RuvB dimers bound (fit, dimer model, one Cy5 per labelled dimer) [5]: 4% | % of RuvA-Holliday junction DNA complexes with 4 RuvBs bound (fit, monomer model) [5]: 31% | % of RuvA-Holliday junction DNA complexes with 5 RuvB dimers bound (fit, dimer model, Cy5 at random) [5]: 0% | % of RuvA-Holliday junction DNA complexes with 5 RuvB dimers bound (fit, dimer model, one Cy5 per labelled dimer) [5]: 0% | % of RuvA-Holliday junction DNA complexes with 5 RuvBs bound (fit, monomer model) [5]: 12% | % of RuvA-Holliday junction DNA complexes with 6 RuvB dimers bound (fit, dimer model, Cy5 at random) [5]: 0% | % of RuvA-Holliday junction DNA complexes with 6 RuvB dimers bound (fit, dimer model, one Cy5 per labelled dimer) [5]: 0% | % of RuvA-Holliday junction DNA complexes with 6 RuvBs bound (fit, monomer model) [5]: 0%
